Six molecules from doi:10.1101/2022.09.01.506182 (bioRxiv, 2022) can be followed below.

Test [1] addresses T1, endogenous LGR5 of human cancer cell lines (human (endogenous in NALM6, REH, 697, LoVo)) (UniProt O75473).
T1 sequence: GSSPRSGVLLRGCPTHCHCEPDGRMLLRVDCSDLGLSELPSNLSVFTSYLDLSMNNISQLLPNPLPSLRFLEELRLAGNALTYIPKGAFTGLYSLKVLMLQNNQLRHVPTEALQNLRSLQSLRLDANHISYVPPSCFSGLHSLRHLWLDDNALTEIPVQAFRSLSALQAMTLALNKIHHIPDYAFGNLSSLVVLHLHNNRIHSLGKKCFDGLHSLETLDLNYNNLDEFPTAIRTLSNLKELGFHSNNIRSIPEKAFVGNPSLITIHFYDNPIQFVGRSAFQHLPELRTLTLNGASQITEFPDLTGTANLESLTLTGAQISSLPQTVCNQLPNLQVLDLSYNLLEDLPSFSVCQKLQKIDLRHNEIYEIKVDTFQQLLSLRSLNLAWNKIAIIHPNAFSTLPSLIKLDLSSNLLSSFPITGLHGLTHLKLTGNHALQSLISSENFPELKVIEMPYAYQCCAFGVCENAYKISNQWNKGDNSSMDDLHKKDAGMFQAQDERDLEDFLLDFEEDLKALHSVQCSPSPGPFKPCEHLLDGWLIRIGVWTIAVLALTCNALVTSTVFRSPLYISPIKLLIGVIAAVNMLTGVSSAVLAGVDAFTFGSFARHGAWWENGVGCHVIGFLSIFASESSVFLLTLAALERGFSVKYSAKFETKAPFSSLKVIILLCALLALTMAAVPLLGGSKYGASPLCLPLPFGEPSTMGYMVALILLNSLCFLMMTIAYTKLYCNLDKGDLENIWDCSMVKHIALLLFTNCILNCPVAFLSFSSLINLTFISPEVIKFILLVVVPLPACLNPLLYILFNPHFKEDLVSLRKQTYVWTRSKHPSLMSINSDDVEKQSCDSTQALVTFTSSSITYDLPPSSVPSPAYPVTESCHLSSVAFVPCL

The target in test [2] is T1, endogenous LGR5 of human cancer cell lines (human (endogenous in NALM6, REH, 697, LoVo)). The source holds these as a separate data set.
The target of test [3] is T2, RAD-displayed Fragment 1A of human LGR5 (Homo sapiens, UniProt O75473).
T2 chain: GSSPRSGVLLRGCPT
Briefly: BLI. Background: In BLI a coated tip is dipped into the sample, and binding shifts an interference pattern.

For test [4], the target named is T2, RAD-displayed Fragment 1A of human LGR5. Description: western blot.
In test [5] the target is T3, endogenous LGR5 of human cancer cell lines (Homo sapiens, UniProt O75473). Description: western blot. For orientation: In western blotting, separated proteins are transferred to a membrane and probed.
The target of test [6] is T3, endogenous LGR5 of human cancer cell …. Description: flow cytometry on cells.
For test [7], the target named is T2, RAD-displayed Fragment 1A of human LGR5. Description: immunostaining of cells or tissue.
Test [8] addresses murine LGR5 transgene with N-terminal HA tag, V2 receptor tail and eGFP (Mus musculus, UniProt Q9Z1P4). Briefly: flow cytometry on cells. On the technique in general: A flow cytometer gives signals particle by particle.
Test [9] has as its target human LGR4 transgene with N-terminal HA tag, V2 receptor tail and eGFP (Homo sapiens, UniProt Q9BXB1). Briefly: flow cytometry on cells.

murine LGR5 transgene with N-terminal HA tag, V2 receptor tail and eGFP, sequence (Q9Z1P4 22-907): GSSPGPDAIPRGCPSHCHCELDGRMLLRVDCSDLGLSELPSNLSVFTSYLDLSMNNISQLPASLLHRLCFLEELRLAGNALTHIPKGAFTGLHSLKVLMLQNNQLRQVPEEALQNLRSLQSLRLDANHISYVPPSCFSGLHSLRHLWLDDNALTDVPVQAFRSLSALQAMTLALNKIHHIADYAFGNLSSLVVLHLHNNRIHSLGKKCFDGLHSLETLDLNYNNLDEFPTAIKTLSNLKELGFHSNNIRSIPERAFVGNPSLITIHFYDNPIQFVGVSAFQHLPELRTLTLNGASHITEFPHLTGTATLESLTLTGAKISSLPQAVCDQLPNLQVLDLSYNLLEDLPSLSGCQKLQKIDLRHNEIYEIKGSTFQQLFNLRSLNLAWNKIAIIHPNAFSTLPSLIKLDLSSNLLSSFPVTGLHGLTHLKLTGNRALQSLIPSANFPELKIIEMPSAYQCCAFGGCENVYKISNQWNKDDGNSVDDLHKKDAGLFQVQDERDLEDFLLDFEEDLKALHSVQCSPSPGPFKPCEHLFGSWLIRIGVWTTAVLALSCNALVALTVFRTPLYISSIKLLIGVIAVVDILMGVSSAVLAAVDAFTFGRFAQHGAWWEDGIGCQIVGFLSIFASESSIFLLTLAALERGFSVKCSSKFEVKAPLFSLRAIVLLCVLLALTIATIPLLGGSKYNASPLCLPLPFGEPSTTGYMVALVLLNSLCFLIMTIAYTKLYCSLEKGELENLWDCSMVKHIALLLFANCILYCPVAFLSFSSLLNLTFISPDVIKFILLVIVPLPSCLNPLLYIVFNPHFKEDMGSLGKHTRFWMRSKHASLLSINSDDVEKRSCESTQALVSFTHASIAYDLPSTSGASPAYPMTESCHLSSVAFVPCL
human LGR4 transgene with N-terminal HA tag, V2 receptor tail and eGFP, sequence (Q9BXB1 25-951): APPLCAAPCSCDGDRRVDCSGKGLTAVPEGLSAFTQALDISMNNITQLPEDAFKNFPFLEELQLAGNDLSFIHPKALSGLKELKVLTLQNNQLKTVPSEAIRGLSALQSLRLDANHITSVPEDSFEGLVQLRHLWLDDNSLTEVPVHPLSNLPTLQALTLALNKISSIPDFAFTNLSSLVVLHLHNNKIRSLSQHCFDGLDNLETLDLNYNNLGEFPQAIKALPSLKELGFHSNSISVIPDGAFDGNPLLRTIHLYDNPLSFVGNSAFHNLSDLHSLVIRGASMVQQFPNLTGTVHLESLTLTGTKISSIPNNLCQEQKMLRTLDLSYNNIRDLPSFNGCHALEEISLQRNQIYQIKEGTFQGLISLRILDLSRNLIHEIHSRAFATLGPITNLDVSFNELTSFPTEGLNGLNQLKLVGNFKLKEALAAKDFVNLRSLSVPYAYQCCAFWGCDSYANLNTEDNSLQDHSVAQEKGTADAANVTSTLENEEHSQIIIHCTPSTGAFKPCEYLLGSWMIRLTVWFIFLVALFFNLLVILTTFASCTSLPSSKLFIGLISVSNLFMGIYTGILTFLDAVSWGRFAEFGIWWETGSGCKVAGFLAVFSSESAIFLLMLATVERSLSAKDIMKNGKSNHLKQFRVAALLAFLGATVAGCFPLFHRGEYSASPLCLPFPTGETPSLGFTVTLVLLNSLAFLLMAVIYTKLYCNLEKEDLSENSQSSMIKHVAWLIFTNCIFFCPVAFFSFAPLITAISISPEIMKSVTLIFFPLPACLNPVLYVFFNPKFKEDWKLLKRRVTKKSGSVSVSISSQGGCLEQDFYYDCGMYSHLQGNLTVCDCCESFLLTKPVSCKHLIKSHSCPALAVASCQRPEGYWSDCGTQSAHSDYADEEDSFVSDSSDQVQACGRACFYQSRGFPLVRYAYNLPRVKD

B1: α-LGR5-ADC (murine clone 2 conjugated to MMAE, sulphatase cleavable linker) (antibody, V domains shown)
VH: QVQLQQPGAELVKPGASVKLSCKASGYTFTNYWMQWVKQRPGQGLEWIGEIDPSDSYTNYNQKFKGKATLTVDTSSSTAYMQLSSLTSEDSAVYYCARSLSGYVDYWGQGTTLTVSS
VL: DIQMTQTTSSLSASLGDRVTISCRASQDISNRLNWYQQKPDGTVKLLISYRSRLHSGVPSRFSGSGSGTDYSLTISNLEQEDIATYFCQQGNSLPPTFGGGTKLEVR
With B1, in test [1], the killing of NALM6 cells after three days of treatment (CellTiter-Glo), EC50 stood at 4 nM and the killing of REH cells after three days of treatment (CellTiter-Glo), EC50 was determined as 10 nM. In test [2], this molecule returned a killing of LoVo cells after three days of treatment (CellTiter-Glo), EC50 of 9 nM. Besides, the binding result in test [3] was “binds”.

B2: α-LGR5 hybridoma clone 4 (antibody, V domains shown)
VH: QVQLQQPGAELVKPGASVKLSCKASGYTFTDYWMQWVKQRPGQGLEWIGEIDPSDSYTNYNQKFQGKATLTVDTSSSTAYIQLSSLTSDDSAVYYCARSLSGSVDYWGQGTTLTVSS
VL: DIQMTQTTSSLSASLGDRVTISCRASQDISNRLNWYQQKPDGTVKLLISYRSRLQSGVPSRFSGSGSGTDYSLTITNLEQEDIATYFCQQGNTLPPTFGGGTKLEVR
Consider B2, for which the binding result in [4] is given as “binds”.

B3: α-LGR5 hybridoma clone 2 (antibody, V domains shown)
VH: QVQLQQPGAELVKPGASVKLSCKASGYTFTNYWMQWVKQRPGQGLEWIGEIDPSDSYTNYNQKFKGKATLTVDTSSSTAYMQLSSLTSEDSAVYYCARSLSGYVDYWGQGTTLTVSS
VL: DIQMTQTTSSLSASLGDRVTISCRASQDISNRLNWYQQKPDGTVKLLISYRSRLHSGVPSRFSGSGSGTDYSLTISNLEQEDIATYFCQQGNSLPPTFGGGTKLEVR
On to B3, for which the binding result in [5] and in [4] was “binds” each time.

B4: α-LGR5 hybridoma clone 3 (antibody, V domains shown)
VH: QVQLQQPGAELVKPGASVKLSCKASGYTFTSYWMQWVKQRPGQGLEWIGEIDPSDSYSNYNQKFKGKATLTVDTSSSTAYMQLSSLTSEDSAVYYCARSLSGYVDYWGQGTTLTVSS
VL: DIQMTQTTSSLSASLGDRVTISCRASQDISNRLNWYQQKPDGTVKLLISYRSRLQSGVPSRFSGSGSGTDYSLTISNLEEEDIATYFCQQGNTLPPTFGGGTKLEVR
For the molecule B4, the binding result in test [4] is “binds”.

B5: murine α-LGR5 coupled to Dylight650 fluorophore (antibody, V domains shown)
VH: QVQLQQPGAELVKPGASVKLSCKASGYTFTNYWMQWVKQRPGQGLEWIGEIDPSDSYTNYNQKFKGKATLTVDTSSSTAYMQLSSLTSEDSAVYYCARSLSGYVDYWGQGTTLTVSS
VL: DIQMTQTTSSLSASLGDRVTISCRASQDISNRLNWYQQKPDGTVKLLISYRSRLHSGVPSRFSGSGSGTDYSLTISNLEQEDIATYFCQQGNSLPPTFGGGTKLEVR
Consider B5, for which the binding result is reported as “binds” in test [6], “binds” in [7], “no binding” in test [8] and “no binding” in [9].

B6: α-LGR5 hybridoma clone 1 (antibody, V domains shown)
VH: QVQLQQPGAELVKPGASVKLSCKASGYTFTSYWMQWVKQRPGQGLEWIGEIDPSDYYTNYNQKFKGKATLTVDTSSSTAYMQLSSLTSEDSAVYYCARSLSGYVDYWGQGTTLTVSS
VL: DIQMTQSTSSLSASLGDRVTINCRASQDIRNRLNWYQQKPDGTVKLLISYRSRLQSGVPSRFSGSGSGTEYSLTISNLEQEDIATYFCQQGNTLPPTFGGGTKLEVR
For B6, in test [4], the binding result is given as “binds”.
